Experimental data as given in patent publication US20140044730A1 (Regeneron, published 2014).
Residue numbers refer to the chain shown, from its start.

B1: VH-G26H (antibody, V domains shown)
VH: EMQLVESGGGLVQPGGSLRLSCAASHFTFSSHWMKWVRQAPGKGLEWVANINQDGSEKYYVDSVKGRFTISRDNAKNSLFLQMNSLRAEDTAVYYCARDIVLMVYDMDYYYYGMDVWGQGTTVTVSS
VL: not shown
notes: His variant of 300N
B2: VH-Y105H (antibody, V domains shown)
VH: B1 VH with H26G, Y105H
VL: not shown
notes: His variant of 300N
B3: VK-G56H (antibody, V domains shown)
VH: B1 VH with H26G
VL: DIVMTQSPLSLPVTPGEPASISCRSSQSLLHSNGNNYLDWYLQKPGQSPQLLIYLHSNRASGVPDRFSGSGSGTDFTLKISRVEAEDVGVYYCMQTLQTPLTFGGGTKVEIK
notes: His variant of 300N
B4: VK-G34H (antibody, V domains shown)
VH: B1 VH with H26G
VL: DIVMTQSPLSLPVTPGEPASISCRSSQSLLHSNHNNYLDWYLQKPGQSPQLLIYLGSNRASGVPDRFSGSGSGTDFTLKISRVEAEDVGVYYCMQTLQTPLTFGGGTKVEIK
notes: His variant of 300N
B5: VK-N36H (antibody, V domains shown)
VH: B1 VH with H26G
VL: not shown
notes: His variant of 300N
B6: VH-S56H (antibody, V domains shown)
VH: B1 VH with H26G, S56H
VL: not shown
notes: His variant of 300N
B7: VH-K58H (antibody, V domains shown)
VH: B1 VH with H26G, K58H
VL: not shown
notes: His variant of 300N
B8: VK-P100H (antibody, V domains shown)
VH: B1 VH with H26G
VL: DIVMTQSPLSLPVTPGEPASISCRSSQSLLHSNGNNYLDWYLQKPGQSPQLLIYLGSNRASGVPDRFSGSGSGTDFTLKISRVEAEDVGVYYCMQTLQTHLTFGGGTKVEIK
notes: His variant of 300N
B9: VK-N35H (antibody, V domains shown)
VH: B1 VH with H26G
VL: not shown
notes: His variant of 300N
B10: VK-Q27H (antibody, V domains shown)
VH: B1 VH with H26G
VL: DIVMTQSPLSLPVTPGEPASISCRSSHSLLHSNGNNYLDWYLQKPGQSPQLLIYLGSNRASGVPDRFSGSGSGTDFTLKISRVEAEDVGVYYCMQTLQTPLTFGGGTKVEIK
notes: His variant of 300N
B11: VH-Y109H (antibody, V domains shown)
VH: B1 VH with H26G, Y109H
VL: not shown
notes: His variant of 300N
B12: VK-L29H (antibody, V domains shown)
VH: B1 VH with H26G
VL: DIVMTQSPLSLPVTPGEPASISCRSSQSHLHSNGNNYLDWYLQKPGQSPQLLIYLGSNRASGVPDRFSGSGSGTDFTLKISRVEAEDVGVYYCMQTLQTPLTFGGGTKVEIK
notes: His variant of 300N
B13: VK-L55H (antibody, V domains shown)
VH: B1 VH with H26G
VL: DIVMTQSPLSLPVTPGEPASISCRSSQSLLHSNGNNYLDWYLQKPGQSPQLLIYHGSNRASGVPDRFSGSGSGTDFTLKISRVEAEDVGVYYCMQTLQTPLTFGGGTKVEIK
notes: His variant of 300N
B14: VH-V116H (antibody, V domains shown)
VH: B1 VH with H26G, V116H
VL: not shown
notes: His variant of 300N
B15: VH-G55H (antibody, V domains shown)
VH: B1 VH with H26G, G55H
VL: not shown
notes: His variant of 300N
B16: VH-L102H (antibody, V domains shown)
VH: B1 VH with H26G, L102H
VL: not shown
notes: His variant of 300N
B17: VK-Q95H (antibody, V domains shown)
VH: B1 VH with H26G
VL: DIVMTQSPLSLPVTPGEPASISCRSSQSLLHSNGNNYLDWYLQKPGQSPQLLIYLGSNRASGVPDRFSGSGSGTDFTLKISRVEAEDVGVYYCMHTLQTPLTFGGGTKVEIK
notes: His variant of 300N
B18: VH-Y111H (antibody, V domains shown)
VH: B1 VH with H26G, Y111H
VL: not shown
notes: His variant of 300N
B19: VH-W33H (antibody, V domains shown)
VH: B1 VH with H26G, W33H
VL: not shown
notes: His variant of 300N
B20: VK-M94H (antibody, V domains shown)
VH: B1 VH with H26G
VL: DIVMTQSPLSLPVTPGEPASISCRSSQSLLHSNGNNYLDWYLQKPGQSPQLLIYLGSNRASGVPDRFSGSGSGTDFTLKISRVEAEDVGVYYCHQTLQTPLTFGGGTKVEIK
notes: His variant of 300N
B21: VH-S31H (antibody, V domains shown)
VH: B1 VH with H26G, S31H
VL: not shown
notes: His variant of 300N
B22: VH-R98H (antibody, V domains shown)
VH: B1 VH with H26G, R98H
VL: not shown
notes: His variant of 300N
B23: VH-N52H (antibody, V domains shown)
VH: B1 VH with H26G, N52H
VL: not shown
notes: His variant of 300N
B24: VH-M103H (antibody, V domains shown)
VH: B1 VH with H26G, M103H
VL: not shown
notes: His variant of 300N
B25: VH-Q53H (antibody, V domains shown)
VH: B1 VH with H26G, Q53H
VL: not shown
notes: His variant of 300N
B26: VK-L97H (antibody, V domains shown)
VH: B1 VH with H26G
VL: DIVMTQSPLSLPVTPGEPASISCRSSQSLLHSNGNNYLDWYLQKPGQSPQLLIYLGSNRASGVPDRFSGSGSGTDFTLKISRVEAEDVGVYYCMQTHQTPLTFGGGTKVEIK
notes: His variant of 300N
B27: VK-N33H (antibody, V domains shown)
VH: B1 VH with H26G
VL: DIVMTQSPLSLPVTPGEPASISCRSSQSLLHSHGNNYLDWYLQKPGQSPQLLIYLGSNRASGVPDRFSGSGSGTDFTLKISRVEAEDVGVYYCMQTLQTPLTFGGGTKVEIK
notes: His variant of 300N
B28: VH-S30H (antibody, V domains shown)
VH: B1 VH with H26G, S30H
VL: not shown
notes: His variant of 300N
B29: VH-T28H (antibody, V domains shown)
VH: B1 VH with H26G, T28H
VL: not shown
notes: His variant of 300N
B30: VH-Y110H (antibody, V domains shown)
VH: B1 VH with H26G, Y110H
VL: not shown
notes: His variant of 300N
B31: VH-I51H (antibody, V domains shown)
VH: B1 VH with H26G, I51H
VL: not shown
notes: His variant of 300N
B32: VK-L101H (antibody, V domains shown)
VH: B1 VH with H26G
VL: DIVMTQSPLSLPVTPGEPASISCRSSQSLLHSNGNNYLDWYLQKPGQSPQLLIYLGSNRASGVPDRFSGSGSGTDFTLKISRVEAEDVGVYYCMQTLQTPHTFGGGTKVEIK
notes: His variant of 300N
B33: VH-I100H (antibody, V domains shown)
VH: B1 VH with H26G, I100H
VL: not shown
notes: His variant of 300N

biological target: T1, human PCSK9 with a C-terminal myc-myc-hexahistidine tag (human, UniProt Q8NBP7 31-692, limits assumed); assay: SPR 25C pH 7.2, mAb captured;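 further: biacore SPR, antibodies captured on anti-human Fc CM4 chip with PCSK9 flowed as analyte, rate constants from a one-to-one kinetic fit, KD and half-life derived from them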
T1 construct: also called hPCSK9-mmH; hPCSK9-mmh; not shown: C-terminal myc-myc-hexahistidine tag

Kd | t½ | Binder
0.985 nM | 47 min | B1
292 nM | 1 min | B2
1.11 nM | 36 min | B3
18 nM | 1 min | B4
0.952 nM | 42 min | B5
1.02 nM | 40 min | B6
1.39 nM | 32 min | B7
8.9 nM | 4 min | B8
1.06 nM | 48 min | B9
5.01 nM | 9 min | B10
242 nM | 0 min | B11
12.9 nM | 7 min | B12
0.906 nM | 66 min | B13
2.62 nM | 43 min | B14
0.921 nM | 53 min | B15
4.89 nM | 23 min | B16
1.33 nM | 27 min | B17

Kd | t½ | Binder
19.4 nM | 3 min | B18
15.4 nM | 4 min | B19
3.53 nM | 29 min | B20
1.01 nM | 48 min | B21
4.29 nM | 23 min | B22
2.35 nM | 21 min | B23
3.3 nM | 27 min | B24
1.22 nM | 32 min | B25
6.61 nM | 45 min | B26
9.69 nM | 2 min | B27
1.06 nM | 41 min | B28
2.96 nM | 20 min | B29
194 nM | 1 min | B30
0.828 nM | 50 min | B31
1.8 nM | 33 min | B32
6.77 nM | 18 min | B33

biological target: T1, human PCSK9 with a C-terminal …; assay: SPR 25C, mAb captured;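 further: biacore CM4 surface bearing anti-human Fc antibody capturing the mAbs, PCSK9 binding and release rates fitted with a one-to-one model, KD and half-life derived from those rates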
Description: (§1) A Biacore CM4 sensor chip was derivatized with a monoclonal mouse anti-human Fc antibody to capture human antibodies. The histidine substitution variant anti-PCSK9 antibodies were captured onto the anti-human Fc sensor surface from culture medium after transient expression in Chinese hamster ovary (CHO) cells. […] Kinetic association (kₐ) and dissociation (kd) rate constants were determined by processing and fitting the data to a 1:1 binding model using Scrubber 2.0 curve fitting software. Binding dissociation equilibrium constants (KD) and dissociative half-lives (t_{1/2}) were calculated from the kinetic rate constants as: KD (M)=kd/kₐ; and t_{1/2} (min)=(In2/(60*kd).

KD ratio pH 5.75/pH 7.2 | t½ ratio pH 5.75/pH 7.2 | Binder
0.97 | 0.26 | B1
2.2 | 0.83 | B2
1.65 | 0.24 | B3
131 | 0.38 | B4
1.61 | 0.24 | B5
1.11 | 0.23 | B6
0.92 | 0.26 | B7
1.44 | 0.1 | B8
1.98 | 0.29 | B9
0.57 | 0.42 | B10
1.02 | 1.37 | B11
3.12 | 0.16 | B12
2.95 | 0.29 | B13
2.33 | 0.26 | B14
1.13 | 0.28 | B15
3.66 | 0.31 | B16
1.48 | 0.23 | B17

KD ratio pH 5.75/pH 7.2 | t½ ratio pH 5.75/pH 7.2 | Binder
0.36 | 2.29 | B18
1.39 | 0.03 | B19
3.21 | 0.23 | B20
1 | 0.34 | B21
1.75 | 0.28 | B22
1.84 | 0.16 | B23
1.68 | 0.21 | B24
1.29 | 0.19 | B25
1.94 | 0.18 | B26
38.1 | 0.12 | B27
1.03 | 0.33 | B28
0.49 | 0.8 | B29
0.02 | 9.97 | B30
1.24 | 0.34 | B31
1.84 | 0.25 | B32
3.56 | 0.15 | B33

biological target: T1, human PCSK9 with a C-terminal …; assay: SPR 25C pH 5.75, mAb captured;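 further: biacore surface with anti-human Fc antibody capturing the antibodies, PCSK9 as analyte, one-to-one kinetic fit, KD as kd over ka, half-life derived from kd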
Description: as §1

Kd | t½ | Binder
0.956 nM | 12 min | B1
643 nM | 0 min | B2
1.83 nM | 9 min | B3
2370 nM | 0.3 min | B4
1.54 nM | 10 min | B5
1.13 nM | 9 min | B6
1.28 nM | 8 min | B7
12.8 nM | 0.4 min | B8
2.09 nM | 14 min | B9
2.85 nM | 4 min | B10
247 nM | 1 min | B11
40.2 nM | 1 min | B12
2.68 nM | 19 min | B13
6.11 nM | 11 min | B14
1.04 nM | 15 min | B15
17.9 nM | 7 min | B16
1.97 nM | 6 min | B17

Kd | t½ | Binder
7.01 nM | 6 min | B18
21.5 nM | 0.1 min | B19
11.3 nM | 7 min | B20
1 nM | 16 min | B21
7.52 nM | 6 min | B22
4.33 nM | 3 min | B23
5.56 nM | 6 min | B24
1.57 nM | 6 min | B25
12.8 nM | 8 min | B26
369 nM | 0.3 min | B27
1.09 nM | 13 min | B28
1.45 nM | 16 min | B29
3.37 nM | 7 min | B30
1.03 nM | 17 min | B31
3.3 nM | 8 min | B32
24.1 nM | 3 min | B33
